Data reported in patent US20240016917A1 (ACADEMIA SINICA, published 2024).

Target: SARS-CoV-2 S protein S1 (SARS-CoV-2, UniProt P0DTC2 16-685)

B1: monoclonal antibody (mAb) m31A7 (antibody, V domains shown)
VH: EVQLQQSGPEMVKPGASVKISCKTSGYTFTEYTIYWVKQSHGKSLEWLGGINPNIGDTTYNQKFKGKATLTVDTSSSTAYMELRSLTSEDSAVYYCAREVYNYSFAYWGQGTLVTVSA
VL: DIVMSQSPSSLAVSVGEKVTMSCKSSQSLLYSSNQKNYLAWYQQKLGQTPKLLIYWASSRESGVPDRFTGSGSGTDFTLTISSVRAEDLAVYYCQQYYRYPLTFGVGTKLELKR
**Q.** How did the EC50 turn out when B1 was run?
**A.** 0.0235 nM
